Measured values published in US20200164032A1 (WASHINGTON UNIVERSITY, published 2020).

What was measured:
murine CCL19 = molecular target: T1, murine CCL19 (mouse, UniProt O70460 26-108); experiment: SPR, R17 amine-coupled to CM5 chip
T1 construct: also called mCCL19
T1 sequence: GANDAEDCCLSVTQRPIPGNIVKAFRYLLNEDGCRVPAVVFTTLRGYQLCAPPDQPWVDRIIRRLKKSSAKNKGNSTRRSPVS

human CCL5 [1] = molecular target: T2, human CCL5 (human, UniProt P13501 24-91); experiment: SPR, R17 amine-coupled to CM5 chip
T2 construct: also called hCCL5
T2 sequence: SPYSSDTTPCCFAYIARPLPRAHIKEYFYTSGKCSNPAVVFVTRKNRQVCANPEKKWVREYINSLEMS

murine CCL2 [2] = molecular target: T3, murine CCL2 (mouse, UniProt P10148 24-148)
T3 sequence (P10148 24-148 limits assumed): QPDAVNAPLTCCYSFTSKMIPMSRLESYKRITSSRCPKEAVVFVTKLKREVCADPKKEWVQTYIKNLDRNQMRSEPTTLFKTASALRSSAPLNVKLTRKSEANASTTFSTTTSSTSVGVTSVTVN

murine CCL20 [3] = molecular target: T4, murine CCL20 (mouse, UniProt O89093 28-97); experiment: SPR, R17 on CM5 chip; t1/2
T4 construct: also called mCCL20
T4 sequence: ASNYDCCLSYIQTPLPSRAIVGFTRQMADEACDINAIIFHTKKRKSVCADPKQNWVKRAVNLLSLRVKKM

[4] = molecular target: T5, murine XCL1 (lymphotactin) (mouse, UniProt P47993 22-114); experiment: SPR, R17 on CM5 chip; t1/2
T5 construct: also called mXCL1; lymphotactin (XCL1)
T5 sequence: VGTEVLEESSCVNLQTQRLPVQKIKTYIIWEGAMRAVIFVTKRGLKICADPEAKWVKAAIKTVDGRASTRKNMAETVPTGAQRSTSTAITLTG

human CCL5 [5] = molecular target: T2, human CCL5; experiment: SPR, R17 on CM5 chip; t1/2
murine CCL12 [6] = molecular target: T6, murine CCL12 (mouse, UniProt Q62401 23-104); experiment: SPR, R17 on CM5 chip; t1/2
T6 construct: also called mCCL12
T6 sequence: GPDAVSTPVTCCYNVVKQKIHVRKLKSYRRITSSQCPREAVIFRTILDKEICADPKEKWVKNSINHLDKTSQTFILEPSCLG

murine CCL8 [7] = molecular target: T7, murine CCL8 (mouse, UniProt Q9Z121 24-97); experiment: SPR, R17 on CM5 chip; t1/2
T7 construct: also called mCCL8
T7 sequence: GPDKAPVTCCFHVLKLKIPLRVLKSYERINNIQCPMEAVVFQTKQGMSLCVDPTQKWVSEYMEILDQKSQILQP

murine CCL24 = molecular target: T8, murine CCL24 (mouse, UniProt Q9JKC0 27-119); experiment: SPR, R17 on CM5 chip; t1/2
T8 construct: also called mCCL24
T8 sequence: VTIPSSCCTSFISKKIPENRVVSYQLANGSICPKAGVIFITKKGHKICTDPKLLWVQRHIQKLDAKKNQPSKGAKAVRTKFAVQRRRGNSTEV

murine CCL5 = molecular target: T9, murine CCL5 (mouse, UniProt P30882 24-91); experiment: SPR, R17 on CM5 chip; t1/2
T9 construct: also called mCCL5
T9 sequence (P30882 24-91 limits assumed): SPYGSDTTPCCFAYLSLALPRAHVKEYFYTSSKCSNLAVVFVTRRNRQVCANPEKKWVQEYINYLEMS

murine CCL3 = molecular target: T10, murine CCL3 (mouse, UniProt P10855 24-92); experiment: SPR, R17 on CM5 chip; t1/2
T10 construct: also called mCCL3
T10 sequence: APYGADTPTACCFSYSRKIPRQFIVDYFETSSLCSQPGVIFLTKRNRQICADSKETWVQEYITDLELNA

murine CCL4 = molecular target: T11, murine CCL4 (mouse, UniProt P14097 24-92); experiment: SPR, R17 on CM5 chip; t1/2
T11 construct: also called mCCL4
T11 sequence: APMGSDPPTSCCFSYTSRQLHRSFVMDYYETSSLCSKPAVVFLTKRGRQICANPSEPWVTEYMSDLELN

CCL9 [8] = molecular target: T12, CCL9 (UniProt P51670 22-122); experiment: SPR, R17 on CM5 chip; t1/2
T12 sequence: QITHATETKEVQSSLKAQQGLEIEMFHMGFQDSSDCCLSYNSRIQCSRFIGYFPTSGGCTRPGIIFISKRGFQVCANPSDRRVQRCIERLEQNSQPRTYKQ

murine CCL2 [9] = molecular target: T3, murine CCL2; experiment: SPR, R17 on CM5 chip; t1/2
murine CCL20 [10] = molecular target: T4, murine CCL20; experiment: SPR, R17 on CM5 chip, chemokine injected; global 1:1 mass transport fit
human CCL2 = molecular target: T13, human CCL2 (human, UniProt P13500 24-99); experiment: as above
T13 construct: also called hCCL2
T13 sequence (P13500 24-99 limits assumed): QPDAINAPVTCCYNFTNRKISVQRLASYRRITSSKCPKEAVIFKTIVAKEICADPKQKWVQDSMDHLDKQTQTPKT

murine CCL12 [11] = molecular target: T6, murine CCL12; experiment: as above
murine CCL8 [12] = molecular target: T7, murine CCL8; experiment: as above
CCL9 [13] = molecular target: T12, CCL9; experiment: as above
murine CCL2 [14] = molecular target: T3, murine CCL2; experiment: as above
murine CCL20 [15] = molecular target: T4, murine CCL20; experiment: SPR, R17 on CM5 chip; KD,kin = kd/ka from the global fit
murine CCL12 [16] = molecular target: T6, murine CCL12; experiment: as above
murine CCL8 [17] = molecular target: T7, murine CCL8; experiment: as above

B1: R17 chemokine decoy receptor of Rodent herpesvirus Peru (RHVP), wild type, C-terminal 8-His fusion (receptor)
chain: GPVGEPVASEINEASKVSSRLLTQDILFRKDRQATISLPIKLPVEDIITQTCDKITYGPLKFLDLLEKETAVLPLSTDITCPACLGRAVLVGKWECPAHVAVNESDLTVFGPNKEEHVPQFVTVQQPSDGKMQRLFFAKFLGTEESLAVLRVPGPDGHLCIQEALIHFKELSGAGVCSLWKANDSREEGLEMKQVDCLETTVLENQTCIATTLSKKIYHRLYCGERLMTGGQVSTRVLLTALGFYKRQPYTFHRVPKGMVYVHLIDSGSEDYMEYSECEEVTPGRYEDKQISYTFYTDLFQTADGEPVLASVWGTSGLKDSAYESCAFVIPTKGRRKLVPRRIMSKCYPFRLTYHPSTMTVRLDVRVEKHHGATDQGFVFLKMESGTYSEGREYYLDRVLWGEDSSTNNVLQ
notes: not shown: C-terminal 8-His tag
Murine CCL19
  binding result: binds
Human CCL5 [1]
  dissociation time of the complex: > 10 min
Murine CCL2 [2]
  Kd: 12 nM
Murine CCL20 [3]
  t1/2: 32.2 s
[4]
  t1/2: > 1000 s
Human CCL5 [5]
  t1/2: > 1000 s
Murine CCL12 [6]
  t1/2: 6.9 s
Murine CCL8 [7]
  t1/2: 6.9 s
Murine CCL24
  t1/2: > 1000 s
Murine CCL5
  t1/2: > 1000 s
Murine CCL3
  t1/2: > 1000 s
Murine CCL4
  t1/2: > 1000 s
CCL9 [8]
  t1/2: 6.8 s
Murine CCL2 [9]
  t1/2: 34.6 s
Murine CCL20 [10]
  koff: 0.031 s⁻¹
  kon: 6.5e+06 M⁻¹ s⁻¹
Human CCL2
  koff: 0.012 s⁻¹
  kon: 1e+06 M⁻¹ s⁻¹
Murine CCL12 [11]
  koff: 0.01 s⁻¹
  kon: 8.9e+06 M⁻¹ s⁻¹
Murine CCL8 [12]
  koff: 0.1 s⁻¹
  kon: 1.3e+06 M⁻¹ s⁻¹
CCL9 [13]
  koff: 0.01 s⁻¹
  kon: 3.6e+06 M⁻¹ s⁻¹
Murine CCL2 [14]
  koff: 0.02 s⁻¹
  kon: 2e+06 M⁻¹ s⁻¹
Murine CCL20 [15]
  Kd: 4.7 nM
Murine CCL12 [16]
  Kd: 1.1 nM
Murine CCL8 [17]
  Kd: 76 nM
